Experimental data as given in patent publication US5981483A, “Compositions comprising modulators of cytokines of the TGF-β superfamily” (Mount Sinai Hospital Corporation, priority 1997, dated 1999).

Tests used:
BMP-4 = molecular target: T1, BMP-4 (Homo sapiens, UniProt P12644); assay: BIAcore surface plasmon resonance, binding to immobilized BMP-4; conditions: Table 2 (calculations repeated); ligand BMP-4; KD = kdiss/kass
T1 sequence (P12644 293-408): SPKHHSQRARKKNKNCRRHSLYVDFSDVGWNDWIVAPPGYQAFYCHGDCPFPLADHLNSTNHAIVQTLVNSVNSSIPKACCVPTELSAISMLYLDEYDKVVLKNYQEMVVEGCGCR
Experimental: (§1) In this system, a purified protein serving as the ligand is covalently coupled to a carboxymethylated dextran surface, and binding molecules (i.e. the analyte) are passed in a fluid phase across the surface. Binding of the analyte to ligand causes a change in reflected light which is directly proportional to mass bound, and is measured in arbitrary response units (R.U.). Analyte-ligand binding is observed as both increasing response with time during the injection of analyte, and the difference in the position of the baseline before and after injection.
(§2) Schuster, R. V. Swanson, L. A. Alex, R. B. Bourret, M. I. Simon, Nature 365, 343 (1993). 1000 R.U. equals approximately 1 ng/mm^2. The running buffer was 20 mM Hepes (pH 7.2), 150 mM NaCl and the flow rate for all sensorgrams was 3 μl/min.
(§3) Regeneration of the surface to remove bound analyte was done by injection of 10 μl of 20 mM NaOH. To cyclize TRH1 peptides, the material was reduced with 5 mM DTT then brought to a final concentration of 60 μM in 25 mM ammonium acetate (pH 8.5). […]
(§4) Data was analyzed using the BIA-evaluation software (Pharmacia Biosensor). The association rate constant, kass, was calculated by first plotting the change in response with time versus response (i.e. dR/dT vs R). […] The affinity constants were calculated from KD =kdiss /kass. […]

BMP-6 = molecular target: T2, BMP-6 (Homo sapiens, UniProt P22004); assay: BIAcore surface plasmon resonance, binding to immobilized BMP-6; conditions: Table 1; ligand BMP-6
T2 sequence (P22004 375-513): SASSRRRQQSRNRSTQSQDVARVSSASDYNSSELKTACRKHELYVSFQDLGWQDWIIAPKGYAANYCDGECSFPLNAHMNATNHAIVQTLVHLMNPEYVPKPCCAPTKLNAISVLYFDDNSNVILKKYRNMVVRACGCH
Experimental: as §1, §2, §3, §4

TGF-β1 = molecular target: T3, TGF-β1 (Homo sapiens, UniProt P01137); assay: BIAcore surface plasmon resonance, binding to immobilized TGF-β1; conditions: ligand TGF-β1
T3 construct: The mature processed cytokines produced from the members of the gene family show almost 100% amino acid identity between species; purchased Collaborative Research (Bedford, Mass.)
T3 sequence (P01137 279-390 limits assumed): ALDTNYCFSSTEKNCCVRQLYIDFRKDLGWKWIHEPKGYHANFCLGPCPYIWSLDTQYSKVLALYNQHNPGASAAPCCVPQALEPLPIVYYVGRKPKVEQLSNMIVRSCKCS
Experimental: as §1, §2
Regeneration of the surface to remove bound analyte was done by injection of 10 μl of 20 mM NaOH. To cyclize TRH1 peptides, the material was reduced with 5 mM DTT then brought to a final concentration of 60 μM in 25 mM ammonium acetate (pH 8.5). After stirring in the dark for 30 min at 20° C. with 30 mM potassium ferricyanide, the peptide was mixed with AG3-X4A resin (BioRad), filtered, lyophilization and desalted on a 50×2.5 cm column of Biogel P2 (Pharmacia) developed in water, and further purified by reverse phase HPLC.
Injection volumes were 36 μl for FIG. 2, 4 and 5 and 45 μl for FIG. 3. […] Protein concentrations in each experiment were (FIGS. 2 and 3), 2, 5, 10, 20, 30, 40 μM; (FIG. 4), 0.21, 0.31, 0.41, 0.62, 0.82, 1.24 μM; (FIG. 5), 0.22, 0.29, 0.44, 0.59, 0.88 μM. R.U. for the immobilized cytokine in each experiment was 2850 R.U. for FIGS. 2 and 3; 7450 R.U. for FIG. 4, and 5300 R.U., for FIG. 5 respectively.
Data was analyzed using the BIA-evaluation software (Pharmacia Biosensor). The association rate constant, kass, was calculated by first plotting the change in response with time versus response (i.e. dR/dT vs R). When the slope of the line from this graph is plotted versus analyte concentration (i.e d(dR/dT)/dR vs C), kass is obtained from the slope of the line. The dissociation rate constant, kdiss, is obtained during the decrease in response with time after analyte injection is discontinued. Specifically, kdiss was obtained from the slope of the line in a plot of ln(Rt1 /Rtn) vs time. The affinity constants were calculated from KD =kdiss /kass. Variance for kass is standard error of the linear regression plot, and for kdiss values are the mean ± range of 3 or more independent injections.

[1] = system: rat bone marrow stromal cells; assay: Dexamethasone-treated rat bone marrow stromal cell cultures (proliferation, mineralization, TGF-β levels); assay type: cell-based
Experimental: The methods used in the studies described in this example and illustrated in FIGS. 16 and 17 are as follows. Femoral bones were removed under aseptic conditions from adult male Wistar rats (120 g), cleaned of adherent soft tissues, and washed extensively in antibiotics. The distal ends were removed and the marrow contents were flushed out with 10 ml of culture medium. The cells were dispersed by repeated passage through a 20 gauge needle and incubated in alpha-MEM supplemented with 15% fetal bovine serum, ascorbic acid (50 μg/ml), antibiotics (penicillin G 100 μg/ml, gentamicin 50 μg/ml, fungizone 0.3 μg/ml) and 10 mM β-glycerophosphate. […] Following 6 days of culture at 37° C. in a humidified atmosphere containing 5% CO2 in air, the cells were re-plated at a density of 1×10^2 cell/mm^2 in 96 multi-well plates (Falcon 3047), and grown for another 12-14 days. At the end of culture, the cells were fixed and stained for calcium with alizarin red-s for quantification of bone nodule area (reported as mineralized area (mm^2)/well). To assess mineralized tissue formation in the cultures morphometric measurements were carried out with the aid of a Bioquant IV system (Bioquant, Nashville, Tenn., U.S.A.) using a Leitz Orthoplan microscope. TGF-β in culture supernatants taken 4 days prior to scoring mineralization were measured with and without heat activation (80° C. for 10 min) using the Mink cells as the indicator cell line as described in FIG. 12.

Mv1Lu cells = assay: 3H-Thymidine incorporation in Mv1Lu cells: proliferation / growth; assay type: cell-based, mink; conditions: absence of cytokines, FIG. 12; read-out: IC50, stimulated proliferation of Mv1Lu cells
Experimental: Mv1Lu cells were seeded at 20,000 cells/well in a 96 well plate containing 0.2% FCS in α-MEM and incubated with the indicated concentrations of proteins for 18 hr. The cells were then pulsed with 8 μCi/ml methyl-^3 H-thymidine (NEN, Boston, Mass.) for 6 hr. Cells were trypsinized, harvested onto filtermats and counted in a β-Counter. Percent neutralization is defined as incorporation in the presence of 12 pM TGF-β1 alone set at 0%, and incorporation without additions as 100%.

TGF-β1 binding to TβRII = molecular target: T4, TGF-β1 binding to TβRII (Homo sapiens, UniProt P01137); assay: Competition of TGF-β1 binding to immobilized TβRII (Quantikine ELISA); conditions: 40 pM TGF-β1; fetuin 40 μM, TRH1 peptide from TβRII 20 μM; FIG. 14
T4 construct: The mature processed cytokines produced from the members of the gene family show almost 100% amino acid identity between species; purchased R&D Systems
T4 sequence (P01137 279-390 limits assumed): as above
Experimental: Inhibition of TGF-β1 binding to TβRII was carried out using the Quantikine ELISA kit (R&D Systems). In particular, 96 well plates were pre-coated with the extracellular domain of TβRII. […] This was followed by a 5 minute incubation with the TβRII coated ELISA wells with shaking, washing as recommended, and a 1 hr incubation with the polyclonal anti-TGF-β1 antibody. Plates were developed as per the instructions, and determinations were made in triplicate.

[2] = Table 2 (calculations repeated)

Work on “Fetuin: Bovine fetal fetuin, glycoprotein obtained by ammonium sulfate fractionation of FCS and gel filtration (Sigma)” yielded a Kd (BMP-4) of 0.12 µM, a kass (BMP-6) of 2900 ± 500 M⁻¹ s⁻¹ and a kass (TGF-β1; Table 1) of 670 ± 400 M⁻¹ s⁻¹. The kass (TGF-β1; Table 1, listed as fetuin) was 670 M⁻¹ s⁻¹, the kdiss (TGF-β1; Table 1, listed as fetuin) was 0.16 s⁻¹ and the kass (TGF-β1; [2]) was 870 ± 270 M⁻¹ s⁻¹. The kdiss (TGF-β1; [2]) was 0.0019 s⁻¹, the Kd (TGF-β1; Table 2 (calculations repeated), KD = kdiss/kass, listed as b-Fetuin) was 2.2 µM and the “BMP-2 induced osteogenesis in the cultures” value ([1]; data not shown) was “could be blocked”. For the same substance, the “deposition of calcium-containing matrix” value ([1]; dexamethasone-treated bone marrow cultures, latter two weeks, FIGS. 16 and 18) was “inhibited deposition of calcium-containing matrix”, the “cell number during the first week of culture (proliferative phase)” value ([1]; dexamethasone-treated, FIG. 15) was “stimulated an increase in cell number” and the IC50 (Mv1Lu cells) was 8 µM. The “inhibition of TGF-β1 binding to immobilized recombinant TβRII” value (TGF-β1 binding to TβRII) was “competitive inhibitors”.
